Results reported in article PMC2889927.

Columns and labels:
Experiment in all cases: flow cytometry on cells; PE-conjugated OCH-loaded human CD1d tetramers on human iNKT clones; 4°C, 45 min; mean fluorescence intensity
[1] = target: TCR of the human iNKT clone 4C1227, on the cells of the clone (human)
[2] = target: TCR of the human iNKT clone 4C862, on the cells of the clone (human)
[3] = target: TCR of the human iNKT clone 4C1369, on the cells of the clone (human)
[4] = target: TCR of the human iNKT clone 4C866, on the cells of the clone (human)
[5] = target: TCR of the human iNKT clone DN347, on the cells of the clone (human)

OCH-tet (MFI) [1]: 1230 MFI
OCH-tet (MFI) [2]: 862 MFI
OCH-tet (MFI) [3]: 1370 MFI
OCH-tet (MFI) [4]: 866 MFI
OCH-tet (MFI) [5]: 347 MFI
B1: PE-conjugated human CD1d tetramer loaded with OCH (complex)
chain: EVPQRLFPLRCLQISSFANSSWTRTDGLAWLGELQTHSWSNDSDTVRSLKPWSQGTFSDQQWETLQHIFRVYRSSFTRDVKEFAKMLRLSYPLELQVSAGCEVHPGNASNNFFHVAFQGKDILSFQGTSWEPTQEAPLWVNLAIQVLNQDKWTRETVQWLLNGTCPQFVSGLLESGKSELKKQVKPKAWLSRGPSPGPGRLLLVCHVSGFYPKPVWVKWMRGEQEQQGTQPGDILPNADETWYLRATLDVVAGEAAGLSCRVKHSSLEGQDIVLYWGGSYTSMGLIALAVLACLLFLLIVGFTSRFKRQTSYQGVL
